From publication PMC9569133 (Biochemistry, 2021) come the findings set out here.

The data set deals with the molecule itself. The experiment in a line: native MS.

B1: Kir3.2, full-length, human (natural protein, UniProt P48051 1-423, looked up)
chain: MAKLTESMTNVLEGDSMDQDVESPVAIHQPKLPKQARDDLPRHISRDRTKRKIQRYVRKDGKCNVHHGNVRETYRYLTDIFTTLVDLKWRFNLLIFVMVYTVTWLFFGMIWWLIAYIRGDMDHIEDPSWTPCVTNLNGFVSAFLFSIETETTIGYGYRVITDKCPEGIILLLIQSVLGSIVNAFMVGCMFVKISQPKKRAETLVFSTHAVISMRDGKLCLMFRVGDLRNSHIVEASIRAKLIKSKQTSEGEFIPLNQTDINVGYYTGDDRLFLVSPLIISHEINQQSPFWEISKAQLPKEELEIVVILEGMVEATGMTCQARSSYITSEILWGYRFTPVLTLEDGFYEVDYNSFHETYETSTPSLSAKELAELASRAELPLSWSVSSKLNQHAELETEEEEKNLEEQTERNGDVANLENESKV
In the case of B1, the stoichiometry N (commonly the number of molecules, sites or subunits per partner or assembly) was found to be 4.
